Source: patent publication CN114230673A (dated 2022)

How the values were obtained:
Assay in all cases: ELISA, biotinylated recombinant protein on streptavidin plate, HRP anti-His detection
[1] = molecular target: T1, 生物素标记重组人BCMA (rhBCMA) (human, UniProt Q02223 1-54, biotin label (site not stated))
T1 construct: Bought protein
T1 sequence (looked up): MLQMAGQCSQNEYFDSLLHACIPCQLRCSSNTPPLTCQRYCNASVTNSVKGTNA

[2] = molecular target: T2, 生物素标记重组人CD27 (rhCD27) (human, UniProt P26842 21-192, limits assumed, biotin label (site not stated))
T2 construct: Bought protein
T2 sequence (looked up): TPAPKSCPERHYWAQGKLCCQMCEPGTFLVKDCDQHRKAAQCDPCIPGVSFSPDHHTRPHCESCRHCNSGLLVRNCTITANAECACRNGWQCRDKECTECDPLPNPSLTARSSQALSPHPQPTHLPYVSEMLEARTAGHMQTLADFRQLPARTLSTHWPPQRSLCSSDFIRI

[3] = molecular target: T3, 生物素标记重组人CD40 (rhCD40) (human, UniProt P25942 21-193, biotin label (site not stated))
T3 construct: Bought protein

Measured: binding result

T3 sequence (P25942 21-193 limits assumed): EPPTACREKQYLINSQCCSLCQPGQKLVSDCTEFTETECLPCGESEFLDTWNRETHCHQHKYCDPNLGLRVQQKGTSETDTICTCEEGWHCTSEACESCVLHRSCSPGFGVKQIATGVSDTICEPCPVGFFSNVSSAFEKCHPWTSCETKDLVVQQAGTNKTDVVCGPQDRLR

B1: anti-CD19 scFv (scFv)
scFv: DIQMTQTTSSLSASLGDRVTISCRASQDISKYLNWYQQKPDGTVKLLIYHTSRLHSGVPSRFSGSGSGTDYSLTISNLEQEDIATYFCQQGNTLPYTFGGGTKLEITGGGGSGGGGSGGGGSEVKLQESGPGLVAPSQSLSVTCTVSGVSLPDYGVSWIRQPPRKGLEWLGVIWGSETTYYNSALKSRLTIIKDNSKSQVFLKMNSLQTDDTAIYYCAKHYYYGGSYAMDYWGQGTSVTVSS
notes: Soluble scFv used in the ELISA and flow cytometry; also called CD19抗体; 小鼠抗人anti CD19-scFv抗体; not shown: His tag implied by the anti-His detection antibody
no binding: [1] | [2] | [3]
